Results published in publication PMC8660799, “Cryo-EM reveals unique structural features of the FhuCDB Escherichia coli ferrichrome importer” (Communications Biology, 2021).
Changes are numbered by the printed parent chain.

How the values were obtained:
Conditions in all cases: both partners purified
FhuCB with FhuB Q636A = biological target: T1, FhuCB with FhuB Q636A (Escherichia coli, UniProt P07821 1-265; P06972 1-660, Q636A, red-tris-NTA 2nd generation dye on the His-tag); assay: MST; 40 nM FhuCB (wild type or FhuB mutant) in detergent, His-tag labelled with red-tris-NTA 2nd generation dye; serial dilution of 1.6 μM FhuD with substrate ferrichrome; with ATP-Mg; Monolith NT.115pico, 20% LED power, medium MST power
T1 construct: FhuC, ATPase subunit, Escherichia coli; as in Dm2; FhuB, membrane subunit, Escherichia coli, 660 residues; Mutant made on the FhuCB-pET15b construct by direct mutagenesis; source: E. coli BL21(DE3) C43, purified (TALON, Superose 6 gel filtration) in LMNG; not shown: His-tag, N-terminal, kept; copies: 2 + 1
T1 sequence (looked up) 1: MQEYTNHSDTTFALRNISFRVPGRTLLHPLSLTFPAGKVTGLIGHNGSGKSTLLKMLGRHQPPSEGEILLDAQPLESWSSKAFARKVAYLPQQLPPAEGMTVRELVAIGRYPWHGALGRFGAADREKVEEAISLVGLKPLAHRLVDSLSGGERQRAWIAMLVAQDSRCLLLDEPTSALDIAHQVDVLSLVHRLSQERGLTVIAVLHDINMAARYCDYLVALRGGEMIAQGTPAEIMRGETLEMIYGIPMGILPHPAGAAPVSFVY
T1 sequence (looked up) 2: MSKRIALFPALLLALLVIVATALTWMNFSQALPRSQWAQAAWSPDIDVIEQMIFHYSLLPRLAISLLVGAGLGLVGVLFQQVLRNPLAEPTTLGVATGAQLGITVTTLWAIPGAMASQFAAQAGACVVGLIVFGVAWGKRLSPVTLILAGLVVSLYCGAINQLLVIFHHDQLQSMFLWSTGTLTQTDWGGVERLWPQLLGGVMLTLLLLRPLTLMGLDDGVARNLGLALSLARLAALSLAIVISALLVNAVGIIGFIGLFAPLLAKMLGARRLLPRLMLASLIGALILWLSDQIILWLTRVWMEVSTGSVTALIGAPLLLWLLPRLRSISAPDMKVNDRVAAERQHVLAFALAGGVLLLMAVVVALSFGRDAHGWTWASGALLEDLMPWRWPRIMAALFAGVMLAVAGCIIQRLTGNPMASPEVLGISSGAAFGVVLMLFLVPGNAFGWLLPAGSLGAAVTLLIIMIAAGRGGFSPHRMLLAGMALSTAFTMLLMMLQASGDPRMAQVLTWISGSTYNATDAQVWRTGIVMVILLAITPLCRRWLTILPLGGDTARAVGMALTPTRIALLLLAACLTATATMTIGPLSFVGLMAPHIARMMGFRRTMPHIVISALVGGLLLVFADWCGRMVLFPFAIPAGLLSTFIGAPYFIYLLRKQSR

FhuCB with FhuB R390A = biological target: T2, FhuCB with FhuB R390A (Escherichia coli, UniProt P07821 1-265; P06972 1-660, R390A, red-tris-NTA 2nd generation dye on the His-tag); assay: as above
T2 construct: FhuC, ATPase subunit, Escherichia coli; as in Dm2; FhuB, membrane subunit, Escherichia coli, 660 residues; Mutant made on the FhuCB-pET15b construct by direct mutagenesis; source: E. coli BL21(DE3) C43, purified (TALON, Superose 6 gel filtration) in LMNG; not shown: His-tag, N-terminal, kept; copies: 2 + 1
T2 sequence (looked up) 1: T1 sequence (looked up) 1
T2 sequence (looked up) 2: T1 sequence (looked up) 2 with R390A, A636Q

FhuCB wild-type = biological target: T3, FhuCB wild-type (Escherichia coli, UniProt P07821 1-265; P06972 1-660, red-tris-NTA 2nd generation dye on the His-tag); assay: MST; 40 nM FhuCB in detergent, His-tag labelled with red-tris-NTA 2nd generation dye; serial dilution of 30 μM FhuD without substrate; with ATP-MgCl2; Monolith NT.115pico, 20% LED power, medium MST power
T3 construct: FhuC, ATPase subunit, Escherichia coli; whole operon cloned from the genome, FhuD gene deleted; thrombin site after the His-tag; FhuB, membrane subunit, Escherichia coli, 660 residues; also called FhuCB subcomplex; source: E. coli BL21(DE3) C43, purified (TALON, Superose 6 gel filtration) in LMNG; not shown: His-tag, N-terminal, kept; copies: 2 + 1
T3 sequence (looked up) 1: T1 sequence (looked up) 1
T3 sequence (looked up) 2: T1 sequence (looked up) 2 with A636Q

- Kd (FhuCB with FhuB Q636A): 90.2 nM
- Kd (FhuCB with FhuB R390A): 75.8 nM
- Kd (FhuCB wild-type): 270 nM
B1: FhuD (natural protein, Escherichia coli)
chain: AAIDPNRIVALEWLPVELLLALGIVPYGVADTINYRLWVSEPPLPDSVIDVGLRTEPNLELLTEMKPSFMVWSAGYGPSPEMLARIAPGRGFNFSDGKQPLAMARKSLTEMADLLNLQSAAETHLAQYEDFIRSMKPRFVKRGARPLLLTTLIDPRHMLVFGPNSLFQEILDEYGIPNAWQGETNFWGSTAVSIDRLAAYKDVDVLCFDHDNSKDMDALMATPLWQAMPFVRAGRFQRVPAVWFYGATLSAMHFVRVLDNAIGGKA
notes: In 'FhuD-ferrichrome' the protein was loaded with the small molecule ferrichrome; also called FhuD-ferrichrome (when loaded with ferrichrome)
